Data on 62 substances can be found in publication PMC8054141.

The first test deals with Cerulean-ICDI1.4. The experiment in a line: FRET two-hybrid assay. The settings on record: parent: est. 26 µM^-1; read off a plot.
On to Venus-IQ-A1.3 GPE[1647]AAA, for which the Ka was determined as 44 µM⁻¹.
Same read-out and setting: as for Venus-IQ-A1.3 AKN[1629]AAA, the figure is 22 µM⁻¹; as for Venus-IQ-A1.3 IRR[1650]AAA, 8 µM⁻¹; as for Venus-IQ-A1.3 KYP[1626]AAA, 25 µM⁻¹.
Consider Venus-IQ-A1.3 LVG[1623]AAA, for which the Ka came to 27 µM⁻¹.
The same measure, in the same setting: as for Venus-IQ-A1.3 RTL[1641]AAA, the figure is 7 µM⁻¹.
Regarding Venus-IQ-A1.3 AGL[1638]AAA, the Ka came out at 7.5 µM⁻¹.
Same read-out and setting: as for Venus-IQ-A1.3 HDI[1644]AAA, the figure is 55 µM⁻¹.
For the substance Venus-IQ-A1.3 TTI[1632]AAA, the Ka was found to be 54 µM⁻¹.
Still for that read-out and setting: the value for Venus-IQ-A1.3 AIS[1653]AAA was 9.5 µM⁻¹; that for Venus-IQ-A1.3 ALQ[1635]AAA was 8.5 µM⁻¹.

The test is the same for the next values; noted with them: parent: est. 21; read off a plot.
For the substance Venus-PreIQ3-IQ-A1.3 D[-14]A, the Ka was 14 µM⁻¹.
Still for that read-out and setting: the value for Venus-PreIQ3-IQ-A1.3 R[+5]A was 16 µM⁻¹.
The same measure, in the same setting: the value for Venus-PreIQ3-IQ-A1.3 I[0]A was 24 µM⁻¹.
The same measure, in the same setting: the value for Venus-PreIQ3-IQ-A1.3 K[-7]A was 14 µM⁻¹; that for Venus-PreIQ3-IQ-A1.3 F[+7]A was 15 µM⁻¹.
Turning to Venus-PreIQ3-IQ-A1.3 Y[+3]A, the Ka is 25 µM⁻¹.
In the case of Venus-PreIQ3-IQ-A1.3 R[+10]A, the Ka was found to be 15 µM⁻¹.
Regarding Venus-PreIQ3-IQ-A1.3 V[-9]A, the Ka came to 11 µM⁻¹.
Same read-out and setting: the value for Venus-PreIQ3-IQ-A1.3 P[-18]A was 22 µM⁻¹; that for Venus-PreIQ3-IQ-A1.3 D[+2]A was 18 µM⁻¹.
The same measure, in the same setting: as for Venus-PreIQ3-IQ-A1.3 P[-17]A, the figure is 16 µM⁻¹.
The same measure, in the same setting: the value for Venus-PreIQ3-IQ-A1.3 Q[+1]A was 24 µM⁻¹.
On to Venus-PreIQ3-IQ-A1.3 D[-13]A, for which the Ka is 28 µM⁻¹.
In the case of Venus-PreIQ3-IQ-A1.3 K[+11]A, the Ka is 15 µM⁻¹.
Still for that read-out and setting: the value for Venus-PreIQ3-IQ-A1.3 K[+6]A was 15 µM⁻¹; that for Venus-PreIQ3-IQ-A1.3 F[-6]A was 12 µM⁻¹.
Venus-PreIQ3-IQ-A1.3 K[+9]A: the Ka turned out to be 15 µM⁻¹.
The same measure, in the same setting: as for Venus-PreIQ3-IQ-A1.3 K[+8]A, the figure is 15 µM⁻¹; as for Venus-PreIQ3-IQ-A1.3 V[-11]A, 15 µM⁻¹.
Same read-out and setting: the value for Venus-PreIQ3-IQ-A1.3 A[-4]T was 9 µM⁻¹.
Same read-out and setting: the value for Venus-PreIQ3-IQ-A1.3 F[+4]A was 3.2 µM⁻¹.
As for Venus-PreIQ3-IQ-A1.3 G[-8]A, the Ka was found to be 32 µM⁻¹.
As for Venus-PreIQ3-IQ-A1.3 T[-3]A, the Ka came to 34 µM⁻¹.
As for Venus-PreIQ3-IQ-A1.3 A[-16]T, the Ka worked out at 18 µM⁻¹.
The same measure, in the same setting: as for Venus-PreIQ3-IQ-A1.3 G[-15]A, the figure is 22 µM⁻¹.
As for Venus-PreIQ3-IQ-A1.3 T[-10]A, the Ka worked out at 37 µM⁻¹.
On to Venus-PreIQ3-IQ-A1.3 E[-12]A, for which the Ka came to 37 µM⁻¹.
For the substance Venus-PreIQ3-IQ-A1.3 Y[-5]A, the Ka turned out to be 4.7 µM⁻¹.
For Venus-PreIQ3-IQ-A1.3 L[-1]A, the Ka came out at 7 µM⁻¹.

The next test concerns the target Venus-PreIQ3-IQ-A1.3. The experiment in a line: FRET two-hybrid assay. The note with it: parent: est. 22; read off a plot.
In the case of Cerulean-ICDI1.4 DNA[1926]AAA, the Ka is 7 µM⁻¹.
Still for that read-out and setting: as for Cerulean-ICDI1.4 EED[1953]AAA, the figure is 40 µM⁻¹; as for Cerulean-ICDI1.4 EGL[1895]AAA, 6 µM⁻¹.
For Cerulean-ICDI1.4 ILS[1947]AAA, the Ka amounted to 37 µM⁻¹.
Consider Cerulean-ICDI1.4 SSL[1938]AAA, for which the Ka turned out to be 46 µM⁻¹.
Still for that read-out and setting: the value for Cerulean-ICDI1.4 ASD[1929]AAA was 30 µM⁻¹; that for Cerulean-ICDI1.4 QGT[1935]AAA was 56 µM⁻¹; that for Cerulean-ICDI1.4 SAD[1883]AAA was 30 µM⁻¹.
With Cerulean-ICDI1.4 HVP[1868]AAA, the Ka worked out at 42 µM⁻¹.
On the same count and under the same terms, as for Cerulean-ICDI1.4 ACR[1917]AAA, the figure is 14 µM⁻¹.
The same measure, in the same setting: the value for Cerulean-ICDI1.4 SHG[1877]AAA was 61 µM⁻¹; that for Cerulean-ICDI1.4 RFD[1950]AAA was 51 µM⁻¹; that for Cerulean-ICDI1.4 EAV[1889]AAA was 37 µM⁻¹.
On the same count and under the same terms, the value for Cerulean-ICDI1.4 LGD[1956]AAA was 50 µM⁻¹; that for Cerulean-ICDI1.4 CVH[1962]AAA was 51 µM⁻¹; that for Cerulean-ICDI1.4 EES[1944]AAA was 38 µM⁻¹.
For the substance Cerulean-ICDI1.4 EMA[1959]AAA, the Ka came out at 26 µM⁻¹.
On to Cerulean-ICDI1.4 GTH[1871]AAA, for which the Ka came out at 48 µM⁻¹.
The same measure, in the same setting: as for Cerulean-ICDI1.4 GLF[1898]AAA, the figure is 3.5 µM⁻¹; as for Cerulean-ICDI1.4 SDP[1874]AAA, 31 µM⁻¹.
Consider Cerulean-ICDI1.4 KRG[1880]AAA, for which the Ka was found to be 6.5 µM⁻¹.
On to Cerulean-ICDI1.4 ALA[1908]AAA, for which the Ka worked out at 38 µM⁻¹.
